# In publication PMC12440821, “ACAD10 and ACAD11 enable mammalian 4-hydroxy acid lipid catabolism” (Nature Structural & Molecular Biology, 2025):
# Key:
# [1] = biological target: the molecule itself; experiment: cryo-EM structure; single-particle cryo-EM of ACAD11 K* incubated with 100 uM 4-HV-CoA; 50 mM HEPES, 50 mM NaCl, 2% glycerol, 50 uM FAD, pH 7.5; D2 symmetry imposed; 2.6 A
# [2] = biological target: the molecule itself; experiment: cryo-EM structure; single-particle cryo-EM of ACAD11 A* incubated with 100 uM 4-PV-CoA; 50 mM HEPES, 50 mM NaCl, 2% glycerol, 50 uM FAD, pH 7.5; D2 symmetry imposed; 3.6 A
Protein,stoichiometry N [1],stoichiometry N [2]
"ACAD11 K* mutant (kinase-inactive mouse acyl-CoA dehydrogenase 11) (enzyme, UniProt Q80XL6 1-779, looked up, catalytic aspartate of the kinase domain replaced with alanine; only the ACAD domains were resolved in the map; Cloned in pE-SUMOstar with a 5' SUMO tag; tag removed with Ulp1; Sample held FAD and 100 uM 4-HV-CoA; also called kinase-dead mutant; source: E. coli B21-CodonPlus (DE3)RIPL, purified (Ni-NTA, cation exchange, size-exclusion chromatography); not shown: SUMO, N-terminal, cleaved) METDVTSDTVEVLPQHKFDLRSLEAYLNQHLPGFGSDSRAVLTVTQYRSGQSNPTFFLQKGSQAYVLRKKPPGSLLPKAHKIDREFKIQKALFSIGFPVAKPLLYCRDASVIGTEFYVMEHVQGRIFRDFSIPGVSSAERAAIYVSVAETLAWLHSLDIRSLKLDKYGTGVGYCKRQVSTWTKQYQASAHQSIPAMDQLSTWLMKNLPDSDSEECLVHGAFKLDNIVFHPKECRVIAVLDWELSTFGHPLTDLAHLSLFYYWPRTLPMINRGSHIPENTGIPLMEELISIYCHRRGIDPNLPNWNFFMALSFFKLAGISQGVYRRYLMGNNSSEDSFLTANTVQPLAETGLQLSKRTLRTTPPQADAKSQLFAQSRRGQEVLTRVKQFMKQHVFPAEKEVAEYYAQSGNSAEKWGHPLVIEKLKEMAKAEGLWNLFLPAVSGLSQVDYALIAEETGKCFFAPDVFNCQAPDTGNMEVLHLYGSEQQKKQWLEPLLRGDITSVFCMTEPNVSSSDATNIECTIQRDGGGYIVNGKKWWSSGAGNPKCKIAIVLGRTESPSASRHRQHSMILVPMDTPGVELIRPLSVFGYMDNMHGGHWEVHFNHVRVPASNLILGEGRGFEISQGRLGPGRIHHCMRTVGLAERILQIMCDRAVQREAFKKKLYEHEVVAHWIAKSRIAIEEIRLLTLKAAHSIDTLGSASARKEIAMIKVAAPKAVCKIADWAIQVHGGAGVSQDYPLANMYAIIRTLRLADGPDEVHLSAIAKMELQDQARRLTARM",4,
"ACAD11 A* mutant (ACAD-inactive mouse acyl-CoA dehydrogenase 11) (enzyme, UniProt Q80XL6 1-779, looked up, catalytic aspartate of the ACAD domain replaced with asparagine; kinase and ACAD domains both resolved; Cloned in pE-SUMOstar with a 5' SUMO tag; tag removed with Ulp1; Sample held FAD and 100 uM 4-PV-CoA; also called ACAD-dead mutant; source: E. coli B21-CodonPlus (DE3)RIPL, purified (Ni-NTA, cation exchange, size-exclusion chromatography); not shown: SUMO, N-terminal, cleaved) METDVTSDTVEVLPQHKFDLRSLEAYLNQHLPGFGSDSRAVLTVTQYRSGQSNPTFFLQKGSQAYVLRKKPPGSLLPKAHKIDREFKIQKALFSIGFPVAKPLLYCRDASVIGTEFYVMEHVQGRIFRDFSIPGVSSAERAAIYVSVAETLAWLHSLDIRSLKLDKYGTGVGYCKRQVSTWTKQYQASAHQSIPAMDQLSTWLMKNLPDSDSEECLVHGDFKLDNIVFHPKECRVIAVLDWELSTFGHPLTDLAHLSLFYYWPRTLPMINRGSHIPENTGIPLMEELISIYCHRRGIDPNLPNWNFFMALSFFKLAGISQGVYRRYLMGNNSSEDSFLTANTVQPLAETGLQLSKRTLRTTPPQADAKSQLFAQSRRGQEVLTRVKQFMKQHVFPAEKEVAEYYAQSGNSAEKWGHPLVIEKLKEMAKAEGLWNLFLPAVSGLSQVDYALIAEETGKCFFAPDVFNCQAPDTGNMEVLHLYGSEQQKKQWLEPLLRGDITSVFCMTEPNVSSSDATNIECTIQRDGGGYIVNGKKWWSSGAGNPKCKIAIVLGRTESPSASRHRQHSMILVPMDTPGVELIRPLSVFGYMDNMHGGHWEVHFNHVRVPASNLILGEGRGFEISQGRLGPGRIHHCMRTVGLAERILQIMCDRAVQREAFKKKLYEHEVVAHWIAKSRIAIEEIRLLTLKAAHSIDTLGSASARKEIAMIKVAAPKAVCKIADWAIQVHGGAGVSQDYPLANMYAIIRTLRLANGPDEVHLSAIAKMELQDQARRLTARM",,4
